From patent US6858425

System: mannose 6-phosphate receptors on the cell surface of fibroblasts

recombinant human acid α-glucosidase produced in the milk of transgenic mice
restoration of acid α-glucosidase activity in GSD II patient fibroblasts after 20 hours with the enzyme: Under these conditions acid α-glucosidase of the patient fibroblasts was restored to the level measured in fibroblasts from healthy individuals
restoration of acid α-glucosidase activity in GSD II patient fibroblasts, with 5 mM mannose 6-phosphate as a competitor: Restoration by α-glucosidase form milk was inhibited by 5 mM mannose 6-phosphate
